Data taken from patent US20150030596A1 (SAMSUNG ELECTRONICS, published 2015).

Assays:
[1] = molecular target: T1, EGFR-Fc (#344-ER, R&D Systems) (UniProt P00533 25-645); test: SPR (Biacore T100); ME-19 captured on human Fab binder on a CM5 chip, EGFR-Fc as analyte
T1 construct: Bought reagent; also called EGFR (R&D systems); EGFR (#344-ER, R&D Systems); not shown: Fc part of the bought fusion protein; not described
Experimental: Human Fab binder (GE Healthcare) was immobilized on the surface of CM5 chip (#BR-1005-30, GE) according to the manufacturer's manual. […] 10 mM Glycine-HCl (pH 1.5) solution was added hereto, to regenerate the surface. To determine the affinity, the obtained data were fitted using BIA evaluation software (GE Healthcare, Biacore T100 evaluation software).

[2] = molecular target: T1, EGFR-Fc (#344-ER, R&D Systems); test: competitive ELISA: plate coated with EGFR (#344-ER, 0.25 ug/well), 20 ng/ml biotinylated EGF mixed with serially diluted ME-19, streptavidin/HRP detection, OD405
Experimental: 96-well immunoplate (Nunc) was coated with EGFR (#344-ER, R&D Systems) in the amount of 0.25 μg/well. […] The resulted reacting product was washed with PBS containing 0.05% (w/v) of Tween 20. HRP (Horse radish peroxidase) conjugated […] (#21140, Thermo scientific) was added to the each well and reacted at room temperature for 1 hour.

[3] = molecular target: T1, EGFR-Fc (#344-ER, R&D Systems); test: SPR (Biacore T100); ME-28 captured on human Fab binder on a CM5 chip, EGFR-Fc as analyte
Experimental: The binding affinity of bispecific chimeric protein ME-28 to EGFR was examined using Biacore T100 (GE). Human Fab binder (GE Healthcare) was immobilized on the surface of CM5 chip (#BR-1005-30, GE) according to the manufacturer's manual. About 90˜120 RU of the bispecific chimeric protein ME-28 was captured, and various concentrations of EGFR-Fc (#344-ER, R&D Systems) were added to the captured bispecific chimeric protein. 10 mM Glycine-HCl (pH 1.5) solution was added hereto, to regenerate the surface. To determine the affinity, the obtained data were fitted using BIA evaluation software (GE Healthcare, Biacore T100 evaluation software).

Row | Kd [1] | koff [1] | kon [1] | IC50 (read off the curve) [2] | Kd [3] | koff [3] | kon [3] | Binder
1 | 0.35 nM | 6.4e-05 s⁻¹ | 180000 M⁻¹ s⁻¹ | ~500 ng/mL |  |  |  | bispecific chimeric protein ME-19 (L3-1Y-IgG2 heavy chain-(G4S)2-anti-EGFR DARPin-01) (bispecific antibody, The DARPin is fused to the C-terminus of each heavy chain; also called anti-c-Met/anti-EGFR DARPin bispecific chimeric protein) heavy: EVQLVESGGGLVQPGGSLRLSCAASGFTFTDYYMSWVRQAPGKGLEWLGFIRNKANGYTTEYSASVKGRFTISRDNSKNTLYLQMNSLRAEDTAVYYCARDNWFAYWGQGTLVTVSSASTKGPSVFPLAPCSRSTSESTAALGCLVKDYFPEPVTVSWNSGALTSGVHTFPAVLQSSGLYSLSSVVTVPSSNFGTQTYTCNVDHKPSNTKVDKTVERKCCVECPPCPAPPVAGPSVFLFPPKPKDTLMISRTPEVTCVVVDVSHEDPEVQFNWYVDGVEVHNAKTKPREEQFNSTFRVVSVLTVVHQDWLNGKEYKCKVSNKGLPAPIEKTISKTKGQPREPQVYTLPPSREEMTKNQVSLTCLVKGFYPSDIAVEWESNGQPENNYKTTPPMLDSDGSFFLYSKLTVDKSRWQQGNVFSCSVMHEALHNHYTQKSLSLSPGKGGGGSGGGGSDLGKKLLEAARAGQDDEVRILMANGADVNADDTWGWTPLHLAAYQGHLEIVEVLLKNGADVNAYDYIGWTPLHLAADGHLEIVEVLLKNGADVNASDYIGDTPLHLAAHNGHLEIVEVLLKHGADVNAQDKFGKTAFDISIDNGNEDLAEILQ light: DIQMTQSPSSLSASVGDRVTITCKSSQSLLASGNQNNYLAWYQQKPGKAPKMLIIWASTRVSGVPSRFSGSGSGTDFTLTISSLQPEDFATYYCQQSYSRPYTFGQGTKVEIKRTVAAPSVFIFPPSDEQLKSGTASVVCLLNNFYPREAKVQWKVDNALQSGNSQESVTEQDSKDSTYSLSSTLTLSKADYEKHKVYACEVTHQGLSSPVTKSFNRGEC
2 |  |  |  |  | < 0.01 nM | < 3.4e-05 s⁻¹ | 110000 M⁻¹ s⁻¹ | bispecific chimeric protein ME-28 (L3-1Y-IgG2 heavy chain-(G4S)2-anti-EGFR DARPin-01-(G4S)2-anti-EGFR DARPin-69) (bispecific antibody, Two DARPins are linked in tandem to each heavy chain C-terminus of the IgG; also called anti-c-Met/anti-EGFR (E01+E69) DARPins bispecific chimeric protein) heavy: EVQLVESGGGLVQPGGSLRLSCAASGFTFTDYYMSWVRQAPGKGLEWLGFIRNKANGYTTEYSASVKGRFTISRDNSKNTLYLQMNSLRAEDTAVYYCARDNWFAYWGQGTLVTVSSASTKGPSVFPLAPCSRSTSESTAALGCLVKDYFPEPVTVSWNSGALTSGVHTFPAVLQSSGLYSLSSVVTVPSSNFGTQTYTCNVDHKPSNTKVDKTVERKCCVECPPCPAPPVAGPSVFLFPPKPKDTLMISRTPEVTCVVVDVSHEDPEVQFNWYVDGVEVHNAKTKPREEQFNSTFRVVSVLTVVHQDWLNGKEYKCKVSNKGLPAPIEKTISKTKGQPREPQVYTLPPSREEMTKNQVSLTCLVKGFYPSDIAVEWESNGQPENNYKTTPPMLDSDGSFFLYSKLTVDKSRWQQGNVFSCSVMHEALHNHYTQKSLSLSPGKGGGGSGGGGSDLGKKLLEAARAGQDDEVRILMANGADVNADDTWGWTPLHLAAYQGHLEIVEVLLKNGADVNAYDYIGWTPLHLAADGHLEIVEVLLKNGADVNASDYIGDTPLHLAAHNGHLEIVEVLLKHGADVNAQDKFGKTAFDISIDNGNEDLAEILQGGGGSGGGGSDLGKKLLEAARAGQDDEVRILMANGADVNADDNAGRTPLHLAANFGHLEIVEVLLKNGADVNAKGHHCNTPLHLAAWAGHLEIVEVLLKYGADVNADDDEGYTPLHLAADIGDLEIVEVLLKYGADVNAWDMYGRTPLHLAASAGHLEIVEVLLKYGADVNAQDKFGKTAFDISIDNGNEDLAEILQ light: DIQMTQSPSSLSASVGDRVTITCKSSQSLLASGNQNNYLAWYQQKPGKAPKMLIIWASTRVSGVPSRFSGSGSGTDFTLTISSLQPEDFATYYCQQSYSRPYTFGQGTKVEIKRTVAAPSVFIFPPSDEQLKSGTASVVCLLNNFYPREAKVQWKVDNALQSGNSQESVTEQDSKDSTYSLSSTLTLSKADYEKHKVYACEVTHQGLSSPVTKSFNRGEC
